Source: paper PMC10645843, “Fungal secondary metabolism is governed by an RNA-binding protein CsdA/RsdA complex” (Nature Communications, 2023)

How the values were obtained:
[1] = target: T1, RsdA-His (PFICI_10532), recombinant (Pestalotiopsis fici, UniProt W3WX91 1-730); assay: pull-down; His pull-down: RsdA-His (or RsdA^ΔC-terminal-His) held on Ni-NTA resin, purified GST-CsdA or its deletion forms added, overnight at 4 °C; binding buffer 50 mM Tris, 250 mM NaCl, 0.2% glycerol, 5 mM DTT, 0.6% Triton X-100, 1 mM PMSF, pH 7.5; wash with 1% Triton X-100; western blot with anti-His and anti-GST; conditions: both partners purified
T1 construct: RsdA, regulator of secondary metabolism and development, Pestalotiopsis fici, locus PFICI_10532; open reading frame amplified from P. fici cDNA; RsdA-His printed as 80.4 kDa; Printed as RsdA-His; vector pET28a (His6-tag); also called PfRsdA; RsdA-His protein; source: E. coli BL21 (plasmid pYZS42, pET28a), purified (Ni-NTA resin)
T1 sequence (looked up): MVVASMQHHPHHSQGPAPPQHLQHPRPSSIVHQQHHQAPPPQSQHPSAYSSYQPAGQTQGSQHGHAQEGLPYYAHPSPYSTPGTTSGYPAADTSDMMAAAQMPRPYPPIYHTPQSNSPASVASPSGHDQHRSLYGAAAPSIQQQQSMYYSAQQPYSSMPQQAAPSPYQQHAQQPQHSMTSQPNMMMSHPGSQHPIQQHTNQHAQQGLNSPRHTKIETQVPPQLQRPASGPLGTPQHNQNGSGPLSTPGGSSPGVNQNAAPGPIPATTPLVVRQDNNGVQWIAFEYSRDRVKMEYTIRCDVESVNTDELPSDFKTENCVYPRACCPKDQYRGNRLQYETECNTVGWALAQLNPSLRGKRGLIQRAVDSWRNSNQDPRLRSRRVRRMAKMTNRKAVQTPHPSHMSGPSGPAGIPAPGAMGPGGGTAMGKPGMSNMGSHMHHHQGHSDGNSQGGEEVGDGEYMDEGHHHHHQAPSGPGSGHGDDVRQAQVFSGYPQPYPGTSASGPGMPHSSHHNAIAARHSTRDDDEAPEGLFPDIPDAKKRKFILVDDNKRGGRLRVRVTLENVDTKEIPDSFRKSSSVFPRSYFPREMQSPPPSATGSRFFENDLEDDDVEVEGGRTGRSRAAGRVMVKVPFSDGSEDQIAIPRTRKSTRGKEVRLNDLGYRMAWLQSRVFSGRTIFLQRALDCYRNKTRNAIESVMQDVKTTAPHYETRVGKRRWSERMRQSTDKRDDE

GST-CsdA [2] = target: T2, GST-CsdA (Pestalotiopsis fici CGMCC3.15140, UniProt W3WSJ8 1-634); assay: ITC; EMSA: Beyotime EMSA kit buffer, 20 min at 25 C, 6% polyacrylamide gel; ITC: 200 uM RNA into 50 uM CsdA, 25 C, buffer not stated (protein elution buffer 50 mM Tris, 150 mM NaCl, 10 mM GSH, pH 8.0); conditions: protein: recombinant; tags: GST (N-terminal, pGEX-4T; pYSZL6)
T2 sequence: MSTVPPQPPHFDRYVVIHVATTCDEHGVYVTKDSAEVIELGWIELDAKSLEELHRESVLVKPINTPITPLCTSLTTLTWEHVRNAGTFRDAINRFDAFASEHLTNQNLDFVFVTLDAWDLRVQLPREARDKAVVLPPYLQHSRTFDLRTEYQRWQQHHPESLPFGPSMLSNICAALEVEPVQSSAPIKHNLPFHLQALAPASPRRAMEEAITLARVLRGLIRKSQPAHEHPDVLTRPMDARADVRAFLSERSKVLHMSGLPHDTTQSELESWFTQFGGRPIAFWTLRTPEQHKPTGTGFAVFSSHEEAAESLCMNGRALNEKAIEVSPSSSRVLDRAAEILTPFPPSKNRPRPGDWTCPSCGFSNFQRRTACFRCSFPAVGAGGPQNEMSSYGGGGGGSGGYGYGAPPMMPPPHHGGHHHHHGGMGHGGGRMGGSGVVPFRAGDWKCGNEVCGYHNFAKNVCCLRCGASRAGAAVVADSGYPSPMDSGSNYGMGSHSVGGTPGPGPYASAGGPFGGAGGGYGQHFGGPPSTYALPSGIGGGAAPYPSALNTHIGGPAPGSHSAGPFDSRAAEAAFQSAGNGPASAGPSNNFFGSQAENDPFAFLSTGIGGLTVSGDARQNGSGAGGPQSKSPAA

GST-CsdA [3] = target: T2, GST-CsdA; assay: EMSA; EMSA: Beyotime EMSA kit buffer, 20 min at 25 C, 6% polyacrylamide gel; ITC: 200 uM RNA into 50 uM CsdA, 25 C, buffer not stated (protein elution buffer 50 mM Tris, 150 mM NaCl, 10 mM GSH, pH 8.0); conditions: protein: recombinant; tags: GST (N-terminal, pGEX-4T; pYSZL6); label: biotin

B1: GST-CsdA (PFICI_10709), recombinant (natural protein, Pestalotiopsis fici, UniProt W3WSJ8 1-634, looked up)
chain: MSTVPPQPPHFDRYVVIHVATTCDEHGVYVTKDSAEVIELGWIELDAKSLEELHRESVLVKPINTPITPLCTSLTTLTWEHVRNAGTFRDAINRFDAFASEHLTNQNLDFVFVTLDAWDLRVQLPREARDKAVVLPPYLQHSRTFDLRTEYQRWQQHHPESLPFGPSMLSNICAALEVEPVQSSAPIKHNLPFHLQALAPASPRRAMEEAITLARVLRGLIRKSQPAHEHPDVLTRPMDARADVRAFLSERSKVLHMSGLPHDTTQSELESWFTQFGGRPIAFWTLRTPEQHKPTGTGFAVFSSHEEAAESLCMNGRALNEKAIEVSPSSSRVLDRAAEILTPFPPSKNRPRPGDWTCPSCGFSNFQRRTACFRCSFPAVGAGGPQNEMSSYGGGGGGSGGYGYGAPPMMPPPHHGGHHHHHGGMGHGGGRMGGSGVVPFRAGDWKCGNEVCGYHNFAKNVCCLRCGASRAGAAVVADSGYPSPMDSGSNYGMGSHSVGGTPGPGPYASAGGPFGGAGGGYGQHFGGPPSTYALPSGIGGGAAPYPSALNTHIGGPAPGSHSAGPFDSRAAEAAFQSAGNGPASAGPSNNFFGSQAENDPFAFLSTGIGGLTVSGDARQNGSGAGGPQSKSPAA
notes: open reading frame amplified from P. fici cDNA; CsdA said to contain 730 amino acids; GST-CsdA printed as 93.6 kDa; Printed as GST-CsdA; vector pGEX-4T (GST-tag); also called PfCsdA; GST-CsdA protein; source: E. coli BL21 (plasmid pYSZL6, pGEX-4T), purified (GST-tag resin)
binding result [1]: binds

GUCGGUAU (ssRNA) [1xGUCGGUAU RNA (ITC)]
Kd (GST-CsdA [2]): 19.7 ± 3.67 µM

GUCGGUAUCGUCGGUAUGGUCGGUAUUGUCGGUAU (ssRNA) [4xGUCGGUAU RNA (ITC)]
Kd (GST-CsdA [2]): 10.5 ± 5.12 µM

CCAGGGAGGUGAAGAAGUCGGUAUGUUUCACCAGAUGUGAU (ssRNA) [rsdA intron 2 5' splice site RNA (EMSA probe)]
binding result (GST-CsdA [3]): binds
